These results are taken from US20200317776A1 (published 2020).

Residue numbers refer to the chain shown, from its start. Names and notes keep the numbering of the source. Where two headings read alike, the source gives them in different places.

Assay [1] addresses T1, cynomolgus monkey TREM2 Fc fusion (entire TREM2 ECD; only one Fc arm fused to TREM2) (cynomolgus monkey, UniProt Q9NZC2 19-174 (human entry)).
T1 construct: also called cyno TREM2-Fc
T1 chain: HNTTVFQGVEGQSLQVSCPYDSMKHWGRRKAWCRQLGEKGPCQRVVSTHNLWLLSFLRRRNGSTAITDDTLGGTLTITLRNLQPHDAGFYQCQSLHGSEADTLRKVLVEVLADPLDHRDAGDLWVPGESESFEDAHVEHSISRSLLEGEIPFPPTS
The experiment in a line: BLI, Fab, monovalent.

The target of assay [2] is T2, human TREM2 Fc fusion (entire TREM2 ECD; only one Fc arm fused to TREM2) (human, UniProt Q9NZC2 19-174).
T2 construct: also called huTREM2-Fc; recombinant hTREM2
T2 sequence: T1 chain with E10A, R60W, F89L, V125F
Briefly: BLI, Fab, monovalent.

For assay [3], the target named is T3, human TREM2/DAP12 fusion protein (human, UniProt O43914 41-113, limits assumed). Briefly: cell-based or functional assay.
Assay [4] has as its target T4, human TREM2 expressed on cells (human, UniProt Q9NZC2 19-230).
T4 construct: BW5147.G.1.4 cells stably expressing human TREM2 together with Dap12, or endogenous TREM2 of primary human myeloid cells; also called huT2 BW; hTREM2 expressing cell line
T4 sequence: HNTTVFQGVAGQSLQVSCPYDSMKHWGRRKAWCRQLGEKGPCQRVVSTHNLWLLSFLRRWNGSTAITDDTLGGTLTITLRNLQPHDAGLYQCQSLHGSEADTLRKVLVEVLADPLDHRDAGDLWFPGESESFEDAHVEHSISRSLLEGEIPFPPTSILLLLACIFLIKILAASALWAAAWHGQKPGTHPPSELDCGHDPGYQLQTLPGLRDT
Briefly: FACS, hTREM2 BW cells.

Assay [5] has as its target T4, human TREM2 expressed on cells. Briefly: FACS, hTREM2 BW cells. The procedure, abridged: (§1)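 Cells were BW5147.G.1.4 stably expressing human TREM2 with Dap12, or human monocyte-derived dendritic cells differentiated 6 days with GM-CSF and IL-4. Antibodies bound 1 h on ice in PBS+2% FBS, then PE anti-human secondary 30 min on ice; flow cytometry read-out as mean fluorescence intensity.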
This is another data set of the same source.

Assay [6] concerns the target T2, human TREM2 Fc fusion (entire TREM2 …). The experiment in a line: BLI, IgG, avid. The method, boiled down:
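Avid format: AHQ-loaded IgGs exposed to 100 nM human or cyno TREM2-Fc antigen, 3 min association, 3 min dissociation in buffer. Monovalent format: human TREM2-Fc loaded on AHQ sensors, exposed to 100 nM Fab. Kinetics fit to 1:1 model, run at 25° C.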

Assay [7] addresses T3, human TREM2/DAP12 fusion protein. Briefly: cell-based or functional assay. This is another data set of the same source.
The target in assay [8] is T4, human TREM2 expressed on cells. Briefly: cell-based or functional assay.
Assay [9] addresses T3, human TREM2/DAP12 fusion protein. The experiment in a line: cell-based or functional assay. This is another data set of the same source.
Assay [10] has as its target T4, human TREM2 expressed on cells. Briefly: FACS, hTREM2 expressing cell line.
The target in assay [11] is T3, human TREM2/DAP12 fusion protein. The experiment in a line: cell-based or functional assay. The source holds these as a separate data set.
The target of assay [12] is T4, human TREM2 expressed on cells. Briefly: cell-based or functional assay. This is another data set of the same source.
Assay [13] has as its target T2, human TREM2 Fc fusion (entire TREM2 …). Briefly: BLI.
In assay [14] the target is T4, human TREM2 expressed on cells. The experiment in a line: FACS, human DCs. The method, boiled down:
as §1

The target in assay [15] is T3, human TREM2/DAP12 fusion protein. The experiment in a line: cell-based or functional assay. The source holds these as a separate data set.
For assay [16] the target is unchanged. The experiment in a line: cell-based or functional assay. This is another data set of the same source.
Assay [17] has as its target T4, human TREM2 expressed on cells. Briefly: FACS, hTREM2 BW cells. This is another data set of the same source.
The target of the next assay is T5, mouse TREM2 (mouse, UniProt Q99NH8 19-227).
T5 construct: Endogenous TREM2 of wild-type mice (peritoneal macrophages); also called murine TREM2
T5 sequence: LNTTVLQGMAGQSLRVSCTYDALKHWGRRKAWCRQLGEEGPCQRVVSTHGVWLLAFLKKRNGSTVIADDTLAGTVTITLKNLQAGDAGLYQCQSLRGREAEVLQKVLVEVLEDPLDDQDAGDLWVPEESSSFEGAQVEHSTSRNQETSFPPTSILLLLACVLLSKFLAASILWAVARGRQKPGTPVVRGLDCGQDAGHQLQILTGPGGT
Briefly: no effect on Dap12 phosphorylation in WT mice.

Assay [18] addresses T4, human TREM2 expressed on cells. Briefly: cell-based or functional assay. This is another data set of the same source.
The target of assay [19] is T3, human TREM2/DAP12 fusion protein. The experiment in a line: cell-based or functional assay. This is another data set of the same source.

B1: AL2p-6 (antibody, V domains shown)
VH: QVQLVQSGAEVKKPGSSVKVSCKASGYAFSSSWMNWVRQAPGQGLEWMGRIYPGDGDTNYAQKFQGRVTITADESTSTAYMELSSLRSEDTAVYYCARLLRNQPGESYAMDYWGQGTLVTVSS
VL: DVVMTQTPLSLSVTPGQPASISCRSSQSLVHSNWYTYLHWYLQKPGQSPQLLIYKVSNRFSGVPDRFSGSGSGTDFTLKISRVEAEDVGVYYCSQSTRVPYTFGQGTKLEIK
notes: AL2p-h50 variant; Fab and IgG formats under one id
B1: the Kd in assay [1] was found to be 1150 nM; in assay [2], 259 nM; in [4], 4.2 nM; in assay [5], 4.2 nM; in [6] it was 1.06 nM. Also, in assay [3], the “luciferase activation, soluble IgG, EC50” value amounted to 38.6 nM. Also, the “Luciferase activation plate bound 33 nM IgG, FOC” value in [7] was found to be 5.39 FOC. For the same molecule, in assay [7], the “Luciferase activation soluble 10 nM IgG, FOC” value was 1.2 FOC. In addition, the “Survival huDCs plate bound IgG, AUC” value in assay [8] is 547000 AUC.

B2: AL2p-47 (antibody, V domains shown)
VH: B1 VH with S32D, D55E, Q62R, Q65H, Q103K
VL: B1 VL with S25T, W34A, F60V
notes: Fab and IgG formats under one id (explicit huIgG1 is m97); also called AL2-47
In the case of B2, in assay [9], the “Reporter assay plate bound IgG (EC50, nM)” value was 206 nM and the “Reporter assay soluble IgG (EC50, nM)” value came out at 105 nM. In assay [10], this molecule showed an equilibrium dissociation constant (Kd) of 1.22 nM. In addition, in [1], binding was put at a Kd of 16.3 nM. In assay [2], the affinity, expressed as Kd, was 14.8 nM. In addition, in assay [11], the “BW Luc assay plate bound 7.3 nM IgG, FOC” value worked out at 3.54 FOC and the “BW Luc assay soluble 7.3 nM IgG, FOC” value was determined as 3.48 FOC. In assay [12], the “DC viability (AUC)” value is 771000 AUC and the “Mac viability (AUC)” value is 22100 AUC. In assay [5], this molecule displayed a Kd of 1.09 nM. Also, in assay [13], the “fold improvement in affinity (KD) vs AL2p” value is about 10 fold. The molecule further registered an MFI in assay [14] of 372 MFI. In addition, in assay [15], the “luciferase activation, plate bound IgG, EC50” value amounted to 206 nM and the “luciferase activation, soluble IgG, EC50” value came to 104 nM.

B3: AL2p-58 (antibody, V domains shown)
VH: B1 VH with S16A, S32Q, G44R, M48I, D55G, Q62G, E74T, T76A
VL: DVVMTQSPDSLAVSLGERATINCRSSQSLVHSNRYTYLHWYQQKPGQSPKLLIYKVSNRFSGVPDRFSGSGSGTDFTLKISRVEAEDVGVYYCSQSTRVPYTFGQGTKLEIK
notes: Fab and IgG formats under one id (explicit huIgG1 is m95, PSEG is m96)
Regarding B3, the “Reporter assay plate bound IgG (EC50, nM)” value in [9] was 36.1 nM. Moreover, the “Reporter assay soluble IgG (EC50, nM)” value in assay [9] stood at 14 nM. The Kd in assay [10] stood at 0.51 nM; in [1], 12.4 nM; in assay [2], 13.3 nM; in assay [5] it was 0.51 nM. Besides, in [13], the “fold improvement in affinity (KD) vs AL2p” value is about 10 fold. Moreover, the “luciferase activation, plate bound IgG, EC50” value in [15] is 36 nM. Further, the “luciferase activation, soluble IgG, EC50” value in [15] was found to be 14 nM.

B4: AL2p-31 (antibody, V domains shown)
VH: B1 VH with S32Q, D55G, Q62R
VL: B1 VL with D1G, W34G, F60R
notes: Fab and IgG formats under one id
Take B4: the “Reporter assay plate bound IgG (EC50, nM)” value in assay [9] worked out at 10.1 nM. Also, the “Reporter assay soluble IgG (EC50, nM)” value in assay [9] was found to be 11.4 nM. The Kd in assay [10] is 0.56 nM; in assay [1], 3.44 nM; in assay [2], 4.03 nM; in [4], 1.23 nM; in [5] it was 1 nM; in assay [6], 0.317 nM. For the same molecule, the “luciferase activation, soluble IgG, EC50” value amounted to 6.92 nM in assay [3] and 1.14 nM in [15]. The “BW Luc assay plate bound 7.3 nM IgG, FOC” value in assay [11] stood at 7.49 FOC. Further, the “BW Luc assay soluble 7.3 nM IgG, FOC” value in assay [11] worked out at 4.48 FOC. Besides, the “DC viability (AUC)” value in [12] is 860000 AUC. Besides, the “Mac viability (AUC)” value in [12] turned out to be 83700 AUC. The molecule also came in with an MFI in [14] of 288 MFI. Also, in [15], the “luciferase activation, plate bound IgG, EC50” value amounted to 10.1 nM. For the same molecule, the “Luciferase activation plate bound 33 nM IgG, FOC” value in assay [7] was determined as 28.2 FOC. In addition, the “Luciferase activation soluble 10 nM IgG, FOC” value in [7] was found to be 2.83 FOC. Moreover, in assay [8], the “Survival huDCs plate bound IgG, AUC” value was 1.21e+06 AUC.

B5: AL2p (parental mouse anti-TREM2 antibody) (antibody, V domains shown)
VH: QVQLQQSGPELVKPGASLKISCKASGYAFSSSWMNWVKQRPGKGLEWIGRIYPGDGDTNYNGEFRVRATLTADTSSTTAYMQLSSLTSEDSAVYFCARLLRNQPGESYAMDYWGQGASVTVSS
VL: DVVMTQTPLSLPVSLGDQASISCRSSQSLVHSNGYTYLHWYLQKPGQSPKLLIYKVSNRFSGVPDRFSGSGSGTDFTLKISRVEADDLGVYFCSQSTRVPYTFGGGTKLEIK
notes: Parental mouse antibody; Fab and IgG formats under one id; also called 9F5; 9F5a
Consider B5, for which the “Reporter assay soluble IgG (EC50, nM)” value in assay [9] worked out at 19 nM. The affinity in assay [10], expressed as Kd, was 3.04 nM. Moreover, the “luciferase activation, soluble IgG, EC50” value in [15] was 19.3 nM.

B6: AL2p-58 huIgG1 (antibody)
heavy: not shown
light: DVVMTQSPDSLAVSLGERATINCRSSQSLVHSNRYTYLHWYQQKPGQSPKLLIYKVSNRFSGVPDRFSGSGSGTDFTLKISRVEAEDVGVYYCSQSTRVPYTFGQGTKLEIKRTVAAPSVFIFPPSDEQLKSGTASVVCLLNNFYPREAKVQWKVDNALQSGNSQESVTEQDSKDSTYSLSSTLTLSKADYEKHKVYACEVTHQGLSSPVTKSFNRGEC
notes: also called AL2p-58 huIgG1 WT
Consider B6, for which, in assay [16], the “Plate bound IgG, fold over unstimulated control (25 nM IgG)” value came to 9.88 fold; the “Soluble IgG, EC50” value came out at 4.83 nM; the “Soluble IgG, fold over control IgG (17 nM IgG)” value was determined as 9.97 fold. Also, in [17], the “Bmax (MFI)” value is 196000 MFI and the Kd stood at 0.63 nM. In addition, the binding result with mouse TREM2 is given as “no binding”. Besides, in assay [18], the “EC50 viability, dendritic cells D558” value was 0.288 nM; the “EC50 viability, dendritic cells D559” value was determined as 0.341 nM; the “EC50 viability, dendritic cells D560” value is 0.271 nM; the “EC50 viability, macrophages D558” value was determined as 0.005 nM. Also, in [18], the “EC50 viability, macrophages D559” value is 0.359 nM and the “EC50 viability, macrophages D560” value worked out at 0.469 nM.

B7: AL2p-58 huIgG1 PSEG (antibody)
heavy: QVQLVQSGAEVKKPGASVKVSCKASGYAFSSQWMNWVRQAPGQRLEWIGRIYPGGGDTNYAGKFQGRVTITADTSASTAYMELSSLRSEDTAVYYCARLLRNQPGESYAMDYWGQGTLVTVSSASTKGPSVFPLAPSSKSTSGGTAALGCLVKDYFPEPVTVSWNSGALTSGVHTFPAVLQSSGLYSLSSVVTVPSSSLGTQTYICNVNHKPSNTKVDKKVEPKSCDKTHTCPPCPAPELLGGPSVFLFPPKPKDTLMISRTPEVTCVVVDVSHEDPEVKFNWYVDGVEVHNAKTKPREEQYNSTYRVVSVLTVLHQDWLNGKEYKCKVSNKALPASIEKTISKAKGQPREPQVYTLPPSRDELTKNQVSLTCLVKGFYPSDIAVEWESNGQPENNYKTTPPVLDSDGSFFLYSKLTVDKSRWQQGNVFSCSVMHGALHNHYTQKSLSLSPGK
light: B6 light
notes: IgG1 with P331S and E430G; also called AL2p-58 PSEG
In the case of B7, in assay [16], the “Plate bound IgG, fold over unstimulated control (25 nM IgG)” value amounted to 12.9 fold; the “Soluble IgG, EC50” value was determined as 2.99 nM; the “Soluble IgG, fold over control IgG (17 nM IgG)” value came to 12.1 fold. Also, in assay [19], the “plate bound signal activation, fold over AL2p” value is about 10 fold over AL2p. In assay [17], the “Bmax (MFI)” value is 140000 MFI and the affinity, expressed as Kd, was 0.36 nM. Further, in assay [18], the “EC50 viability, dendritic cells D558” value is 0.206 nM; the “EC50 viability, dendritic cells D559” value is 0.276 nM; the “EC50 viability, dendritic cells D560” value is 0.206 nM; the “EC50 viability, macrophages D558” value is 0.001 nM. In assay [18], the “EC50 viability, macrophages D559” value is 0.322 nM and the “EC50 viability, macrophages D560” value was found to be 0.426 nM.
